Results on 5 molecules are retold here after paper PMC3376134, “Regulation of the Escherichia coli HipBA Toxin-Antitoxin System by Proteolysis” (PLoS ONE, 2012).

The labels stand for the following.
T1: HipB72 (Escherichia coli, UniProt P23873 1-72, del73-88)
T1 sequence: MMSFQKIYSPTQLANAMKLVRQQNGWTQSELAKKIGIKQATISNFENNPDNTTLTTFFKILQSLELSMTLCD

T2: HipB (Escherichia coli, UniProt P23873 1-88)
T2 sequence: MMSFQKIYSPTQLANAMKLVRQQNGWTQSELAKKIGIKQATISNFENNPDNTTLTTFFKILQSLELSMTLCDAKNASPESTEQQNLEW

T3: HipB(W88A) (Escherichia coli, UniProt P23873 1-88, W88A)
T3 sequence: T2 sequence with W88A

T4: HipA;HipB (Escherichia coli;Escherichia coli, UniProt P23874;P23873 1-440;1-88, |)
T4 sequence 1: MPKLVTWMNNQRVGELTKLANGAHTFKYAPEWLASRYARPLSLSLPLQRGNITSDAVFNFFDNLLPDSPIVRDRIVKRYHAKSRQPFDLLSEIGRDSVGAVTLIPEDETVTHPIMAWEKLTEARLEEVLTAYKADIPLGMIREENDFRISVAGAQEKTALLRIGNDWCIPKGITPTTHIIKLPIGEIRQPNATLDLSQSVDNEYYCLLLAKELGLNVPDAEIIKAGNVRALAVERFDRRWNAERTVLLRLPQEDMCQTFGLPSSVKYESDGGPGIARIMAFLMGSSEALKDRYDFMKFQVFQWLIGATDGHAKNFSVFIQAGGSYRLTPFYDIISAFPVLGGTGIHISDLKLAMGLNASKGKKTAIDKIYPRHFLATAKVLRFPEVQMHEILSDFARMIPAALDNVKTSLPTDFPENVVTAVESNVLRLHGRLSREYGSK
T4 sequence 2: T2 sequence

B1: HipA toxin (wild type HipA protein) (enzyme, E. coli, UniProt P23874 1-440, looked up)
chain: T4 sequence 1
B2: hipBA O1O2 operator (dsDNA)
DNA 1: TTATCCGCTTAAGGGGATATTATAAGTTTTATCCTTTAGTGAGGATAA
DNA 2: TTATCCTCACTAAAGGATAAAACTTATAATATCCCCTTAAGCGGATAA
B3: HipB antitoxin, wild type (natural protein, E. coli, UniProt P23873 1-88, looked up)
chain: T2 sequence
notes: HipB, antitoxin and repressor of the hipBA operon of Escherichia coli, 88 residues; also called HipB WT; pET15b-HipB; source: E. coli BL21(DE3)pLysS, purified (Ni-NTA)
B4: HipB(W88A) (natural protein, E. coli, UniProt P23873 1-88, looked up)
chain: T2 sequence with W88A
notes: HipB of Escherichia coli with the C-terminal tryptophan 88 changed to alanine, made by site-directed mutagenesis in pET15b-hipB; Strain KLE911; also called HipB(W88A) protein; pET15b-hipB w88a; source: E. coli BL21(DE3)pLysS, purified (Ni-NTA)
B5: HipB72 (C-terminal truncation of HipB lacking the last 16 residues) (domain or fragment, E. coli, UniProt P23873 1-72, looked up)
chain: T1 sequence
notes: Strain KLE912; also called HipB72 C-terminal truncation protein; pET15b-hipB72; source: E. coli BL21(DE3)pLysS, purified (Ni-NTA)

In data set [1] the target is B3. Briefly: cell-based or functional assay.
For the next data set, the target named is T1, HipB72. Description: fluorescence polarization; 1 nM DNA; 20 mM Tris-HCl pH 7.5, 100 mM NaCl, 5% glycerol, 10 C, 1 nM labeled DNA. As to conditions: protein: recombinant; tags: His6 (Ni-NTA purified); chain copies: 2; label: 5'-6-carboxyfluorescein on top strand; blunt. On the technique in general: In fluorescence polarisation assays a small probe gives low polarisation when free and higher when bound to something large.

Another data set concerns the target T2, HipB. The description is as above. The settings on record: protein: recombinant; tags: His6 (Ni-NTA purified, pET15b); chain copies: 2; label: 5'-6-carboxyfluorescein on top strand; blunt.
For the next data set, the target named is T3, HipB(W88A). The description is as above. As to conditions: protein: recombinant; tags: His6 (Ni-NTA purified); chain copies: 2; label: 5'-6-carboxyfluorescein on top strand; blunt.
Another data set concerns the target T4, HipA;HipB. Description: fluorescence polarization; HipA titrated into DNA saturated with 50 nM HipB; Kd is formally HipA for DNA-bound HipB; 20 mM Tris-HCl pH 7.5, 100 mM NaCl, 5% glycerol, 10 C, 1 nM labeled DNA. The settings on record: protein: recombinant;recombinant; tags: His6 (Ni-NTA purified, pET28a);His6 (Ni-NTA purified, pET15b); chain copies: 2;4; label: 5'-6-carboxyfluorescein on top strand; blunt.

Data set [2] concerns the target B1. Description: fluorescence polarisation; HipA titrated into 50 nM HipB (or HipB(W88A), HipB72) pre-incubated 2 min with 1 nM 5'-6-carboxyfluorescein-labelled hipBA O1O2 DNA; 20 mM Tris-HCl pH 7.5, 100 mM NaCl, 5% glycerol; 10 °C; the affinity is formally between HipA and HipB bound to the DNA. The settings on record: both partners purified.
Data set [3] deals with B1. Described as above. The settings on record: both partners purified. The source holds these as a separate data set.

The Kd is the equilibrium constant for the complex coming apart.

Where a chain is given by its changes, count along the chain named. Numbers in names are those of the source.

With B1, the “half-life of His6-HipB (0.48 µM) in the in vitro degradation assay with His6-Lon (0.6 µM) when purified His6-HipA (0.48 µM) is added, against lysozyme as control protein” value in data set [1] is above 3.33 h.

With B2, the Kd in the data set with HipB72 turned out to be 0.4 ± 0.1 nM; with HipB, 0.6 ± 0.1 nM; with HipB(W88A) it was 0.9 ± 0.4 nM; with HipA;HipB it was 1000 ± 600 nM.

In turn, B3 displayed a Kd in data set [2] of 1000 ± 600 nM.

As for B4, the Kd in data set [2] amounted to 1200 ± 300 nM.

Regarding B5, the binding result in data set [3] is “binds”.
